The source of these data is PMC5159498, “IQGAP1 Interaction with RHO Family Proteins Revisited” (The Journal of Biological Chemistry, 2016).

Positions count from the first letter of the chain named. Numbers in names are those of the source.

The chains are these.
B1: IQGAP1 GRD1-CT (aa 863-1657) (domain or fragment)
chain: DPPMVVVRKFVHLLDQSDQDFQEELDLMKMREEVITLIRSNQQLENDLNLMDIKIGLLVKNKITLQDVVSHSKKLTKKNKEQLSDMMMINKQKGGLKALSKEKREKLEAYQHLFYLLQTNPTYLAKLIFQMPQNKSTKFMDSVIFTLYNYASNQREEYLLLRLFKTALQEEIKSKVDQIQEIVTGNPTVIKMVVSFNRGARGQNALRQILAPVVKEIMDDKSLNIKTDPVDIYKSWVNQMESQTGEASKLPYDVTPEQALAHEEVKTRLDSSIRNMRAVTDKFLSAIVSSVDKIPYGMRFIAKVLKDSLHEKFPDAGEDELLKIIGNLLYYRYMNPAIVAPDAFDIIDLSAGGQLTTDQRRNLGSIAKMLQHAASNKMFLGDNAHLSIINEYLSQSYQKFRRFFQTACDVPELQDKFNVDEYSDLVTLTKPVIYISIGEIINTHTLLLDHQDAIAPEHNDPIHELLDDLGEVPTIESLIGESSGNLNDPNKEALAKTEVSLTLTNKFDVPGDENAEMDARTILLNTKRLIVDVIRFQPGETLTEILETPATSEQEAEHQRAMQRRAIRDAKTPDKMKKSKSVKEDSNLTLQEKKEKIQTGLKKLTELGTVDPKNKYQELINDIARDIRNQRRYRQRRKAELVKLQQTYAALNSKATFYGEQVDYYKSYIKTCLDNLASKGKVSKKPREMKGKKSKKISLKYTAARLHEKGVLLEIEDLQVNQFKNVIFEISPTEEVGDFEVKAKFMGVQMETFMLHYQDLLQLQYEGVAVMKLFDRAKVNVNLLIFLLNKKFYGK
notes: human IQGAP1, GRD, RGCT and CT domains, aa 863-1657; The GST tag was cleaved 'if needed'; also called C-terminal half of IQGAP1; C-terminal 795 amino acids of IQGAP1
B2: IQGAP1 GRD1-RGCT wild type (aa 877-1558) (domain or fragment, human, UniProt P46940 877-1558, looked up)
chain: DQSDQDFQEELDLMKMREEVITLIRSNQQLENDLNLMDIKIGLLVKNKITLQDVVSHSKKLTKKNKEQLSDMMMINKQKGGLKALSKEKREKLEAYQHLFYLLQTNPTYLAKLIFQMPQNKSTKFMDSVIFTLYNYASNQREEYLLLRLFKTALQEEIKSKVDQIQEIVTGNPTVIKMVVSFNRGARGQNALRQILAPVVKEIMDDKSLNIKTDPVDIYKSWVNQMESQTGEASKLPYDVTPEQALAHEEVKTRLDSSIRNMRAVTDKFLSAIVSSVDKIPYGMRFIAKVLKDSLHEKFPDAGEDELLKIIGNLLYYRYMNPAIVAPDAFDIIDLSAGGQLTTDQRRNLGSIAKMLQHAASNKMFLGDNAHLSIINEYLSQSYQKFRRFFQTACDVPELQDKFNVDEYSDLVTLTKPVIYISIGEIINTHTLLLDHQDAIAPEHNDPIHELLDDLGEVPTIESLIGESSGNLNDPNKEALAKTEVSLTLTNKFDVPGDENAEMDARTILLNTKRLIVDVIRFQPGETLTEILETPATSEQEAEHQRAMQRRAIRDAKTPDKMKKSKSVKEDSNLTLQEKKEKIQTGLKKLTELGTVDPKNKYQELINDIARDIRNQRRYRQRRKAELVKLQQTYAALNSKATFYGEQVDYYKSYIKTCLDNLASKGKVSKKPREMKGKKSKK
notes: human IQGAP1, GRD and RGCT domains, lacks the last 99 amino acids, aa 877-1558; also called GRD1-RGCT^WT; IQGAP1^877-1558
B3: IQGAP1 GRD1-RGCT S1443E (aa 877-1558) (domain or fragment)
chain: B2 chain with S567E
notes: human IQGAP1 aa 877-1558 with the phosphomimetic mutation S1443E (printed as S1143E in the methods, S1443E everywhere else), from the vector pET46 EkLIC; source: E. coli (pLysS BL21(DE3), CodonPlusRIL or BL21(Rosetta)), purified (Ni-NTA, gel filtration)
B4: IQGAP1 GRD1-RGCT S1441E (aa 877-1558) (domain or fragment)
chain: B2 chain with S565E
notes: human IQGAP1 aa 877-1558 with the phosphomimetic mutation S1441E, from the vector pET46 EkLIC; source: E. coli (pLysS BL21(DE3), CodonPlusRIL or BL21(Rosetta)), purified (Ni-NTA, gel filtration)
B5: IQGAP1 RGCT (aa 1276-1575) (domain or fragment, human, UniProt P46940 1276-1575, looked up)
chain: QDKFNVDEYSDLVTLTKPVIYISIGEIINTHTLLLDHQDAIAPEHNDPIHELLDDLGEVPTIESLIGESSGNLNDPNKEALAKTEVSLTLTNKFDVPGDENAEMDARTILLNTKRLIVDVIRFQPGETLTEILETPATSEQEAEHQRAMQRRAIRDAKTPDKMKKSKSVKEDSNLTLQEKKEKIQTGLKKLTELGTVDPKNKYQELINDIARDIRNQRRYRQRRKAELVKLQQTYAALNSKATFYGEQVDYYKSYIKTCLDNLASKGKVSKKPREMKGKKSKKISLKYTAARLHEKGVLL
notes: human IQGAP1, RASGAP C-terminal domain, aa 1276-1575; source: E. coli (pLysS BL21(DE3), CodonPlusRIL or BL21(Rosetta)), purified
B6: IQGAP1 GRD2 (aa 962-1345) (domain or fragment, human, UniProt P46940 962-1345, looked up)
chain: SKEKREKLEAYQHLFYLLQTNPTYLAKLIFQMPQNKSTKFMDSVIFTLYNYASNQREEYLLLRLFKTALQEEIKSKVDQIQEIVTGNPTVIKMVVSFNRGARGQNALRQILAPVVKEIMDDKSLNIKTDPVDIYKSWVNQMESQTGEASKLPYDVTPEQALAHEEVKTRLDSSIRNMRAVTDKFLSAIVSSVDKIPYGMRFIAKVLKDSLHEKFPDAGEDELLKIIGNLLYYRYMNPAIVAPDAFDIIDLSAGGQLTTDQRRNLGSIAKMLQHAASNKMFLGDNAHLSIINEYLSQSYQKFRRFFQTACDVPELQDKFNVDEYSDLVTLTKPVIYISIGEIINTHTLLLDHQDAIAPEHNDPIHELLDDLGEVPTIESLIGESS
notes: human IQGAP1, GAP-related domain fragment GRD2, aa 962-1345, from the vector pMCSG7; source: E. coli (pLysS BL21(DE3), CodonPlusRIL or BL21(Rosetta)), purified (Ni-NTA, gel filtration)
B7: GST-fused IQGAP1 RGCT-CT (aa 1276-1657) (domain or fragment, human, UniProt P46940 1276-1657, looked up)
chain: QDKFNVDEYSDLVTLTKPVIYISIGEIINTHTLLLDHQDAIAPEHNDPIHELLDDLGEVPTIESLIGESSGNLNDPNKEALAKTEVSLTLTNKFDVPGDENAEMDARTILLNTKRLIVDVIRFQPGETLTEILETPATSEQEAEHQRAMQRRAIRDAKTPDKMKKSKSVKEDSNLTLQEKKEKIQTGLKKLTELGTVDPKNKYQELINDIARDIRNQRRYRQRRKAELVKLQQTYAALNSKATFYGEQVDYYKSYIKTCLDNLASKGKVSKKPREMKGKKSKKISLKYTAARLHEKGVLLEIEDLQVNQFKNVIFEISPTEEVGDFEVKAKFMGVQMETFMLHYQDLLQLQYEGVAVMKLFDRAKVNVNLLIFLLNKKFYGK
notes: human IQGAP1, RGCT and CT domains, aa 1276-1657; source: E. coli (pLysS BL21(DE3), CodonPlusRIL or BL21(Rosetta)), purified; not shown: GST, N-terminal, kept

The target in one data set is T1, RAC1 (aa 1-179) (human, UniProt P63000 1-179). In words: fluorescence polarisation; IQGAP1 variant titrated to mGppNHp-bound RHO protein (1 μM); equilibrium Kd (eKd), quadratic fit; 30 mM Tris/HCl pH 7.5, 150 mM NaCl, 5 mM MgCl2, 3 mM DTT, 25 °C. Conditions: both partners purified.
As a reminder, the Kd is the constant that tells how readily two partners part at equilibrium. Higher therefore signals lower affinity. For B1, the Kd came to 5.53 µM.
The same measure, in the same setting: in the case of B2 it was 4.6 µM.
On the same count and under the same terms, in the case of B3 it was 26.7 µM; in that of B4, 6.7 µM.

The next data set concerns the target T1, RAC1 (aa 1-179). The experiment in a line: stopped-flow fluorometry; mGppNHp-bound RHO protein (0.2 μM) rapidly mixed with IQGAP1 variant (2 μM, or 2-12 μM for kon); koff by displacement with 10 μM non-fluorescent GppNHp-bound GTPase; Kd = koff/kon; 30 mM Tris-HCl pH 7.5, 10 mM KH2PO4/K2HPO4, 5 mM MgCl2, 3 mM DTT. The conditions noted are these: both partners purified.
With B1, the Kd worked out at 0.94 µM.
For B2, the Kd was 2.81 µM.
In turn, B3 displayed a Kd of 6.26 µM.
The same measure, in the same setting: then B4, with 3.21 µM.

A further data set deals with the molecule itself. The experiment in a line: SEC; analytical SEC, Superdex 200 10/30, calibrated with standard proteins; 100 μM protein in 200 μl; 30 mM Tris/HCl pH 7.5, 150 mM NaCl, 5 mM MgCl2, 3 mM DTT; 0.5 ml/min.
Conditions: not given
For orientation: stoichiometry N means the number of molecules, sites or subunits per partner or assembly. On to B2, for which the “stoichiometry N” value worked out at 2.
As to B5, the binding result was “binds”.
For B6, the “stoichiometry N” value was found to be 2.
With B7, the binding result was “binds”.
